Experimental data reported in paper PMC3726423.

Key:
[1] = target: T1, L7Ae (Pyrococcus abyssi, UniProt P62008 1-123); experiment: footprinting (Pb2+); K-loop KTa/KTb protected; EMSA: 150 mM KCl, 1.5 mM MgCl2, 0.2 mM EDTA, 20 mM HEPES pH 7.9, 65 C 10 min, 50 fmol sRNA, 200 nM proteins (Kd: 50-400 nM aCBF5); fluorescence: 300 mM NaCl, 25
[2] = target: T1, L7Ae; experiment: footprinting (Pb2+); K-loop KTa/KTb protected; A34-U35 enhanced; EMSA: 150 mM KCl, 1.5 mM MgCl2, 0.2 mM EDTA, 20 mM HEPES pH 7.9, 65 C 10 min, 50 fmol sRNA, 200 nM proteins (Kd: 50-400 nM aCBF5); fluorescence: 300 mM NaCl, 25

B1: Pab91 H/ACA sRNA (structured_RNA)
RNA: GGGUAAUGCCCCUCCCCUCUCACACCUCCGGGAUCAGUGACCGGAGGGCGGUCGGGGAGGGGACACCU
binding result [1]: binds

B2: Pab21 H/ACA sRNA (structured_RNA)
RNA: GGGGAUGGGCCCGGCUCCCGCCCUCUCCGGGGAAUCGUGAACCGGGGGUUCCGGCCGGGCCUACAGU
binding result [2]: binds
